Data reported in PMC7591906, “pHLIP ICG for delineation of tumors and blood flow during fluorescence-guided surgery” (Scientific Reports, 2020).
Entries after “also recorded” stand apart in the source; their conditions may differ. Peptide text beside a SMILES is read from it. * marks the point of attachment. X1 = CC1(C)C(/C=C/C=C/C=C/C=C2/N(CCCCCC(=O)NCCN3C(=O)CC(*)C3=O)c3ccc4ccccc4c3C2(C)C)=[N+](CCCCS(=O)(=O)[O-])c2ccc3ccccc3c21

Key:
[1] = Stability of pHLIP ICG formulations in solution (analytical HPLC); format: physicochemical; details: protected from light
Method: Stability studies were performed with pHLIP ICG formulations in PBS and PBS containing 5% DMSO or 5% Ethanol (vol/vol). The tumor targeting capability in mice is independent of formulation. Formulation of pHLIP ICG in PBS/5% Ethanol was used in PoC animal studies, and in toxicity studies on mice, rats and dogs. For the PBS/5%DMSO formulation 1 mg of the lyophilized powder of pHLIP ICG was dissolved in 75 µl of DMSO (to make 3.2 mM solution), then 10 µl of 3.2 mM stock was mixed with 190 µl PBS to make a 0.16 mM solution of pHLIP ICG (5% DMSO). For the PBS/5%Ethanol formulation, the lyophilized powder of pHLIP ICG was dissolved at a concentration of 1.6 mg/ml in PBS/5% Ethanol solution. Finally, the formulation selected for human use was prepared by dissolving the lyophilized powder of pHLIP ICG at a concentration of 0.8 mg/ml in PBS. All formulations were kept at room temperature and protected from light. The aliquots were taken at 0.5 or 1, 3, 6, 24, 48 and 72 hours (102 hrs for pHLIP ICG dissolved in PBS) for analytical HPLC analysis using a Zorbax SB-C18 column (4.6 x 250 mm, 5 µm) with a binary solvent system using a […] water and acetonitrile gradient with 0.05% TFA over 25 min. […] Formulation of pHLIP ICG in PBS was stable in solution for 4 days kept at RT.

[2] = Pharmacokinetics in mice, single i.v. injection; format: in vivo, B6D2F1 mice; details: single i.v. 12.3 mg/kg
Method: The purpose of this study, performed at MSK, was to determine the pharmacokinetic parameters of pHLIP ICG in 3 female B6D2F1 mice following a single i.v. injection of pHLIP ICG at a dose of 12.3 mg/kg. Blood was collected in EDTA tubes at 5, 15, 30 minutes, and 1, 2, 4, 6, 8, 16, and 24 hours post-injection, followed by centrifugation to separate the plasma, and flash frozen. At time of analysis, samples were thawed, extracted, and analyzed via LC-MS as per the validated protocol using pHLIPIS.

[3] = Cardiovascular telemetry study in conscious Beagle dogs (GLP); format: in vivo; details: male dogs, single i.v. bolus 0.072, 0.36, 1.44 mg/kg, up to 24 h post-dose
Method: The objective of this GLP study performed at CRL was to evaluate the potential cardiovascular effects of pHLIP ICG in instrumented dogs when administered by i.v. bolus injection using a Latin square design.
Each of the four male dogs received a dose of Reference Item (5 % Ethanol in Phosphate buffered saline (PBS), pH of 7.4 ± 0.2) and three dose levels of pHLIP ICG (0.072, 0.36, and 1.44 mg/kg), with a 7-day washout period between each dose. The dose was administered by i.v. bolus injection at a dose volume of 2.5 mL/kg.
The following cardiovascular parameters were evaluated for all animals from 2 hours prior and up to 24 hours post each dose: systemic blood pressures (systolic, diastolic, mean arterial, and pulse pressure), heart rate, body temperature, and electrocardiographic duration/intervals (PR, QRS, QT, and QTc). Qualitative evaluation of the electrocardiographic waveforms was performed twice prior to each dose (at least 30 minutes apart) and at 5, 15, and 30 minutes, 1, 2, 3, 4, 6, 12, and 24 hours post-dose. Additional evaluations consisted of mortality and clinical observations. There were no mortalities or pHLIP ICG related clinical signs throughout the course of the study.

[4] = system: Salmonella typhimurium strains (TA1535, TA1537, TA98, TA100 and TA102); test: In vitro bacterial reverse mutation test; format: cell-based; details: up to 5000 µg/plate, with and without S9 mix
Method: The objective of this study performed at CRL was to determine the potential genotoxicity of pHLIP ICG using the bacterial reverse mutation test.
Salmonella typhimurium strains (TA1535, TA1537, TA98, TA100 and TA102) were treated with pHLIP ICG at a range of concentrations up to 5000 µg/plate (the standard limit dose for this assay), in the presence and absence of a supplemented rat liver fraction (S9 mix), using the plate incorporation version of the bacterial reverse mutation test.
Bacteria were incubated with standard positive controls, and the response of the various bacterial strains to these agents confirmed the sensitivity of the test system and the activity of the S9 mix.

[5] = Pharmacokinetics in Beagle dogs, single i.v. bolus injection; format: in vivo; details: male, dog, plasma, iv, mean
Method: The objective of this study performed at CRL was to characterize the pharmacokinetic profile of pHLIP ICG in Beagle dogs following a single i.v. injection.
Blood samples were collected at 5, 15, and 30 minutes, and 1, 2, 4, 6, 8, 12, 24, and 48 hours post-dose for pharmacokinetic evaluation. Samples were placed on crushed wet ice until centrifugation, which was carried out immediately. The samples were centrifuged as per standard procedures. An aliquot of 250 µL of the resultant plasma was separated, transferred to 2.0 mL low-bind tubes containing 1.25 mL of methanol, mixed and frozen immediately over dry ice and transferred to a freezer at -80°C. At the time of analysis, samples were thawed, extracted, and analyzed via LC-MS/MS according to the validated protocol using pHLIPIS.

[6] = cited from earlier work
Description: Since pHLIP peptides offer a unique approach to the targeting of a spectrum of tumor subtypes, we were motivated to develop a fluorescent pHLIP candidate in order to improve the surgical resection of tumors guided by fluorescence. After testing a variety of fluorescent dyes with pHLIP peptides, we chose a widely used clinical fluorescent dye, indocyanine green (ICG). In addition to its long record of safety, ICG was chosen to couple to pHLIP peptide as a clinical imaging candidate for two main reasons: first, the fluorescence of pHLIP ICG is enhanced about 20 times when pHLIP tethers ICG t ...

[7] = Follow up 7-days repeat i.v. toxicity in male B6D2F1 mice (GLP); format: in vivo
Method: The purpose of this GLP study performed at MSK was to assess the acute and delayed toxicity on the male reproductive system of mice of a repeat administration of pHLIP ICG at different concentrations. The pHLIP ICG was administered once/day for 7 consecutive days.
Throughout the study, body weights, clinical signs, and histopathology were collected.

For `CC(C)C[C@H](NC(=O)[C@H](Cc1ccc(O)cc1)NC(=O)[C@H](C)NC(=O)[C@H](CCCNC(=N)N)NC(=O)[C@H](Cc1c[nH]c2ccccc12)NC(=O)[C@@H]1CCCN1C(=O)[C@H](CC(N)=O)NC(=O)[C@H](CCC(N)=O)NC(=O)[C@H](CC(=O)O)NC(=O)[C@H](CC(=O)O)NC(=O)[C@H](CSC1CC(=O)N(CCNC(=O)CCCCCN2/C(=C/C=C/C=C/C=C/C3=[N+](CCCCS(=O)(=O)[O-])c4ccc5ccccc5c4C3(C)C)C(C)(C)c3c2ccc2ccccc32)C1=O)NC(=O)[C@H](C)N)C(=O)N[C@@H](CC(=O)O)C(=O)N[C@@H](CC(C)C)C(=O)N[C@@H](CC(C)C)C(=O)N[C@@H](Cc1ccccc1)C(=O)N1CCC[C@H]1C(=O)N[C@H](C(=O)N[C@@H](CC(=O)O)C(=O)N[C@H](C(=O)N[C@@H](CC(C)C)C(=O)N[C@@H](CC(C)C)C(=O)N[C@@H](CC(C)C)C(=O)N[C@@H](CC(=O)O)C(=O)N[C@@H](CC(C)C)C(=O)N[C@@H](CC(C)C)C(=O)N[C@@H](Cc1c[nH]c2ccccc12)C(=O)N[C@@H](C)C(=O)O)[C@@H](C)O)[C@@H](C)O` (stereo partly drawn) [pHLIP ICG] (H-AC(X1)DDQNPWRAYLDLLFPTDTLLLDLLWA-OH), which “Stability (purity) of all formulations” value ([1]; PBS, PBS/5% DMSO, PBS/5% Ethanol, up to 72 hours at room temperature, analytical HPLC) is on record?
Its value is over 95%.

What about the “Time stable in solution” value ([1]; reconstituted in PBS (0.8 mg/ml), room temperature, analytical HPLC Zorbax SB-C18) of the same molecule?
The value was 4 days.

And the clearance ([2]; female, B6D2F1, mouse, plasma, iv, mean, read-out: Clearance (Cl) (converted))?
Its clearance is 0.159 mL/min/kg.

And the half-life ([2]; female, B6D2F1, mouse, plasma, iv, mean, read-out: Elimination half-time (T1/2) (converted))?
The half-life was 3.9 h.

What about the Vd ([2]; female, B6D2F1, mouse, plasma, iv, mean, read-out: Volume of distribution (Vz)) of the same molecule?
The Vd was 0.0535 L/kg.

And the “Systemic exposure quantifiable up to” value ([2]; LC-MS)?
The value was “up to 16 hours”.

And the Cardiovascular effects [3]?
Its Cardiovascular effects is “no observable effect on systemic blood pressures, heart rate, body temperature, electrocardiographic intervals; also recorded: no effect on systemic blood pressures, heart rate, body temperature, electrocardiographic intervals, or qualitative ECG parameters”.

And the “Toxicity to the bacteria” value [4]?
Its value is “non-toxic to the bacteria at the levels tested”.

And the “Mutagenicity, revertant colonies” value ([4]; plate incorporation)?
The value was “did not show any evidence of genotoxic activity; also recorded: negative for the induction of mutagenicity”.

And the clearance ([5]; single i.v. 0.064 mg/kg, read-out: Clearance (Cl) (converted))?
Its clearance is 0.193 mL/min/kg.

And the half-life ([5]; single i.v. 0.064 mg/kg, read-out: Elimination half-time (T1/2) (converted))?
Its half-life is 3.7 h.

What about the Vd ([5]; single i.v. 0.064 mg/kg, read-out: Volume of distribution (Vz)) of the same molecule?
The Vd was 0.0616 L/kg.

What about the AUC(0-inf) ([5]; single i.v. bolus 0.064 mg/kg) of the same molecule?
Its AUC(0-inf) is 5550 ng·h/mL.

What about the C0 ([5]; single i.v. bolus 0.064 mg/kg, 3 males, read-out: C0 (theoretical concentration at time zero)) of the same molecule?
The C0 was 1410 ng/mL.

And the AUC(0-t) ([5]; single i.v. bolus 0.064 mg/kg, read-out: AUC0-48hr)?
Its AUC(0-t) is 5450 ng·h/mL.

What about the “Fluorescence enhancement when tethered to the membrane vs aqueous solution” value [6] of the same molecule?
Its value is “about 20 times”.

And the “Toxicity finding, male reproductive system” value ([7]; male B6D2F1 mice, 4.92, 7.38, 12.3 mg/kg/day i.v. for 7 days)?
Its value is “well tolerated, with no indication of germ cell degeneration or other toxicity to the male reproductive system”.

And the NOAEL ([7]; male and female mice, 7 days repeated i.v. administration)?
Its NOAEL is “above 12.3 mg/kg/day”.
